Experiment [1] deals with purified full length LFA-1 (lymphocyte function–associated antigen 1) (human (endogenous in JY)) (UniProt P20701). The experiment in a line: adhesion in a parallel plate flow cell.
In experiment [2] the target is GPI-anchored form of the LFA-1 I domain (I-GPI), stably expressed on baby hamster kidney cells (UniProt P20701). The experiment in a line: radioligand binding.

Chain of UniProt P20701 (P20701 26-1170, chain 1 of 2): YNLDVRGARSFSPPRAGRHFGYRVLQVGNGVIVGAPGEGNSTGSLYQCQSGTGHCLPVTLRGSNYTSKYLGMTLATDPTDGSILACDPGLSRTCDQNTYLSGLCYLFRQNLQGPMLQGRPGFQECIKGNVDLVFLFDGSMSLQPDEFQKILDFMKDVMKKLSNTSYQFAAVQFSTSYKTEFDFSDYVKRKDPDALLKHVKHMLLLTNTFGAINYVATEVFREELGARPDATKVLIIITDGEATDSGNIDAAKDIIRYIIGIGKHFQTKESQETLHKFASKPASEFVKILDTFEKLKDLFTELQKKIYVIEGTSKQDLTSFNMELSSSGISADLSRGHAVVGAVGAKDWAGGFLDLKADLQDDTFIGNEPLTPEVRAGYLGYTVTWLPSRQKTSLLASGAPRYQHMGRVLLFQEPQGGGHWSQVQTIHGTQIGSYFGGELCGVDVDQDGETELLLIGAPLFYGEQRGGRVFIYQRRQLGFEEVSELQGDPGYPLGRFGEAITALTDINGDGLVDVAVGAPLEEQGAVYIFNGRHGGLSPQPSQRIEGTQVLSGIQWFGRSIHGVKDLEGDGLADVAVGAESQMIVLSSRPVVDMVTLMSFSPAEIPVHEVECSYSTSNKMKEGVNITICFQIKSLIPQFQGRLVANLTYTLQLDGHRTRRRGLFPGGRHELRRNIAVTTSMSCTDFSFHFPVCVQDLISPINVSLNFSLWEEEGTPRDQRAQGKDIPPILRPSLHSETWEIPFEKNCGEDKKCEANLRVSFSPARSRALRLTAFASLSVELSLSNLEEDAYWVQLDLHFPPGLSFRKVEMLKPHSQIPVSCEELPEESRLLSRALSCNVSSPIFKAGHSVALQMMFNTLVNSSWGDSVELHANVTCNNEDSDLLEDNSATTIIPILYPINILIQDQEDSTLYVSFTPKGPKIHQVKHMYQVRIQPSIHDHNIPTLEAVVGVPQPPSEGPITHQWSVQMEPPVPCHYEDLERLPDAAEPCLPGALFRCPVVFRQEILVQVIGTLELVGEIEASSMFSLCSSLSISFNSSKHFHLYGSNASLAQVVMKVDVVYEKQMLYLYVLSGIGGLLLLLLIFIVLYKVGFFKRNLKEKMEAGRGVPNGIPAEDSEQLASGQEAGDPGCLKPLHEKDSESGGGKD
Chain of UniProt P20701 (P05107 23-769, chain 2 of 2, further chain): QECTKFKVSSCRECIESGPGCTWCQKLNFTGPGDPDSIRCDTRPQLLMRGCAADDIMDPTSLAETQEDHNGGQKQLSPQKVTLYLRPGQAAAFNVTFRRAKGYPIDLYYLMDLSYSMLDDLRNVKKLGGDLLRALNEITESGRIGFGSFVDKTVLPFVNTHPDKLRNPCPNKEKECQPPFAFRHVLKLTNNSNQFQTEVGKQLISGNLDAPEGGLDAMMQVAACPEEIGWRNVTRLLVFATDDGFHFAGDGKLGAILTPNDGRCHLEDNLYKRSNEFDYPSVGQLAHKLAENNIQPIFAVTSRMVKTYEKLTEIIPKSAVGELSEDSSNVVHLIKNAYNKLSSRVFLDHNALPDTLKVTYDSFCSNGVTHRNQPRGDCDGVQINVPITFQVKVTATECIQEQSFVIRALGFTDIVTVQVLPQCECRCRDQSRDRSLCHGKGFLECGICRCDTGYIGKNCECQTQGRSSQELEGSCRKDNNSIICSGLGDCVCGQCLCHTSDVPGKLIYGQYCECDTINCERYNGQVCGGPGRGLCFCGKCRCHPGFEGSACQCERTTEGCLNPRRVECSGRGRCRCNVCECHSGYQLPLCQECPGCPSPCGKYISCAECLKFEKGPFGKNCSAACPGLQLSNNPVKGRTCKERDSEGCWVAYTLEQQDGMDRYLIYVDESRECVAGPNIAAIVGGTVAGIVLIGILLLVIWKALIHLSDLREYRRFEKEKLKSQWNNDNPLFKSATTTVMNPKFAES

In experiment [1], “ICAM-1 GPI on transfected baby hamster kidney cells (domain or fragment)” showed a percent cells free of 73%, a percent cells rolling of 0% and a percent cells stable of 26%.

Broadly, the IC50 is the point on the concentration scale where inhibition reaches its midpoint. Higher therefore signals a need for much substance. The substance “soluble ICAM-1 (sICAM-1) (domain or fragment)” returned a concentration for half-maximal inhibition (IC50) in experiment [2] of 150 µM.

Source of the values: PMC2199009.
